Test results: PMC11617674, “The activity of the ribonucleotide monophosphatase UmpH is controlled by interaction with the GlnK signaling protein in Escherichia coli” (The Journal of Biological Chemistry, 2024)

Substrate: O=c1ccn([C@@H]2O[C@H](COP(=O)(O)O)[C@@H](O)[C@H]2O)c(=O)[nH]1
Assay: continuous phosphate release, EnzChek (MESG/purine nucleoside phosphorylase), A360, Michaelis-Menten fit
Assay type: biochemical, Escherichia coli
Details: no GlnK, no effectors, 20 mM Hepes pH 7.4, 50 mM KCl, 5 mM MgCl2, 2 mM NAG, 2 mM DTT, 25 °C

B1: UmpH (Escherichia coli K-12) (protein)
chain: MTIKNVICDIDGVLMHDNVAVPGAAEFLHGIMDKGLPLVLLTNYPSQTGQDLANRFATAGVDVPDSVFYTSAMATADFLRRQEGKKAYVVGEGALIHELYKAGFTITDVNPDFVIVGETRSYNWDMMHKAAYFVANGARFIATNPDTHGRGFYPACGALCAGIEKISGRKPFYVGKPSPWIIRAALNKMQAHSEETVIVGDNLRTDILAGFQAGLETILVLSGVSSLDDIDSMPFRPSWIYPSVAEIDVI
notes: untagged; synthetic umpH gene in pET29a, expressed in E. coli BL21 (λDE3); band approximately 30 kDa
Km: 278 ± 27 µM
